From US20130007915A1

Biological target: actin filament
Assay: cell-based or functional assay

sliding velocity (in vitro sliding filament assay) | Substance
16.2 µm/sec | Flag-chimera XI protein (chimeric myosin XI: Chara corallina myosin XI motor domain on the A. thaliana MYA2 backbone, FLAG-tagged)
7 µm/sec | wild-type A. thaliana myosin XI-2 (MYA2), expressed from the Flag-MYA2 XI gene (from UniProt Q9LKB9 1-1505)
